This is an account of results in patent US20250002557A1.

The target of this assay is T1, PDGF-CC, Q9NRA1.
T1 chain: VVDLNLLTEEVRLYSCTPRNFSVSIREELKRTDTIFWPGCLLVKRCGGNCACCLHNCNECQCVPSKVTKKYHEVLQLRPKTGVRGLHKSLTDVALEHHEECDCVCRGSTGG
As to the kind of experiment: SPR, PDGF coupled to CM5 chip, VEGFR2-Fc in flow. The following applies: remark: other sources report otherwise.

B1: VEGFR2-Fc (Met1-Glu764), P35968 20-764 (Fc fusion, not shown: a dimerising Fc or GST)
chain: ASVGLPSVSLDLPRLSIQKDILTIKANTTLQITCRGQRDLDWLWPNNQSGSEQRVEVTECSDGLFCKTLTIPKVIGNDTGAYKCFYRETDLASVIYVYVQDYRSPFIASVSDQHGVVYITENKNKTVVIPCLGSISNLNVSLCARYPEKRFVPDGNRISWDSKKGFTIPSYMISYAGMVFCEAKINDESYQSIMYIVVVVGYRIYDVVLSPSHGIELSVGEKLVLNCTARTELNVGIDFNWEYPSSKHQHKKLVNRDLKTQSGSEMKKFLSTLTIDGVTRSDQGLYTCAASSGLMTKKNSTFVRVHEKPFVAFGSGMESLVEATVGERVRIPAKYLGYPPPEIKWYKNGIPLESNHTIKAGHVLTIMEVSERDTGNYTVILTNPISKEKQSHVVSLVVYVPPQIGEKSLISPVDSYQYGTTQTLTCTVYAIPPPHHIHWYWQLEEECANEPSQAVSVTNPYPCEEWRSVEDFQGGNKIEVNKNQFALIEGKNKTVSTLVIQAANVSALYKCEAVNKVGRGERVISFHVTRGPEITLQPDMQPTEQESVSLWCTADRSTFENLTWYKLGPQPLPIHVGELPTPVCKNLDTLWKLNATMFSNSTNDILIMELKNASLQDQGDYVCLAQDRKTKKRHCVVRQLTVLERVAPTITGNLENQTTSIGESIEVSCTASGNPPPQIMWFKDNETLVEDSGIVLKDGNRNLTIRRVRKEDEGLYTCQACSVLGCAKVEAFFIIEGAQEKTNLE
Take B1: the Kd was determined as 73.6 nM.
